# Data taken from patent US20240352438A1, “MEANS AND METHODS FOR DETOXIFYING OCHRATOXIN A” (DSM Austria GmbH, priority 2021, published 2024).
# Where a chain is given by its changes, count along the chain named.
# B1: 51 (protein)
# chain: MTTRTRILTAFLSLLAANACAADAAPAAPHTVVLRAARMFDGASGKLVDHPQLTIVGNKIVRIAQGDKAEVPAGAEVVDLGDATLLPGFIDAHVHLSGQSSDNWYGDFFDNMMRFPAEQALYGAYYARITLEAGFTSVRDVGSTDWVALGLRNAIDAGKVPGPRMLVSNYGVGSTGGHADQDPIPPHKLPLAGPLQGVCNGPEECRAAVRYQIKYGANVIKFMPSGGVLSLSDPVDAPELSQDEMNAVIGESHAWGRKVAAHAHGDKAAKMAVAAGVDSIEHGSFIEDDTLRAMKAKNVYLVPTISAIAHVEEKIGTFPPVIAEKGRAAAAHLRQTFRHAVQIGVPIALGTDAGVGAHGSNAREFRYMVENGLTPAQALLAGTANAARLLGTFDRVGTLEAGKLADVVAVPGNPIADITVTERPLFVMKDGVVVRRDAVR
# modifications: exemplary polypeptide
# B2: 63 (protein)
# chain: B1 chain with G171A, E239Q
# modifications: exemplary polypeptide
# B3: 64 (protein)
# chain: B1 chain with S143E, G171A
# modifications: exemplary polypeptide
# B4: 62 (protein)
# chain: B1 chain with G171A, V235P
# modifications: exemplary polypeptide
# B5: 60 (protein)
# chain: B1 chain with G171A, V311T
# modifications: exemplary polypeptide
# B6: 66 (protein)
# chain: B1 chain with G171A, V311A
# modifications: exemplary polypeptide
# B7: 59 (protein)
# chain: B1 chain with G171A, I308V
# modifications: exemplary polypeptide
# B8: 55 (protein)
# chain: B1 chain with G171A, L229V
# modifications: exemplary polypeptide
# B9: 53 (protein)
# chain: B1 chain with G171A, P183S
# modifications: exemplary polypeptide
# B10: 67 (protein)
# chain: B1 chain with G171A, V355A
# modifications: exemplary polypeptide
# B11: 54 (protein)
# chain: B1 chain with G171A, V228A
# modifications: exemplary polypeptide
# B12: 68 (protein)
# chain: B1 chain with G171A, A357P
# modifications: exemplary polypeptide
# B13: 52 (protein)
# chain: B1 chain with G171A, P183G
# modifications: exemplary polypeptide
# B14: 61 (protein)
# chain: B1 chain with G171A, V355T
# modifications: exemplary polypeptide
# B15: 56 (protein)
# chain: B1 chain with G171A, L229M
# modifications: exemplary polypeptide
# B16: 58 (protein)
# chain: B1 chain with G171A, A307G
# modifications: exemplary polypeptide
# B17: 57 (protein)
# chain: B1 chain with G171A, A307S
# modifications: exemplary polypeptide
# B18: 46 (protein)
# chain: MYSLAIRNGIVFDGEKFIGKTNIYVDGDKIVKITNERLDAKEEVNAEGYFVMPGLIDAHLHLTGIRGGSLLMGYLLDDPRTRLLRAANWARELLMAGFTTVRDCGEPNSIILRNAINEGIIPGPRIIAAGSPITQTFGHAELSHSLPLEWSIQLGFGEICDGVDECIKAARKVLRSGADFIKIMATGGVLSERDRPEWPQLTPEEMSAIVREAEKVGTYVAAHAHGDKGARIAVEAGVRTIEHGSLITEETVKLMAEKGVSLTPTLSIQELIYKHGKQMGIDPWGLEKIGQVREGVINSIKLARKYGVMILAGTDLGFKTGLDIDMGKNWVEVKLLVELGGLSSEEALRAATGNASKMLRLNTGIIREGYLADIVLINGNPLENINDIARVSTVIKGGKVTVENGKLI
# modifications: exemplary polypeptide
# B19: 35 (protein)
# chain: B18 chain with I65G, H275Y
# modifications: exemplary polypeptide
# B20: 36 (protein)
# chain: B18 chain with I65A, H275Y
# modifications: exemplary polypeptide
# B21: 38 (protein)
# chain: B18 chain with E106S, H275Y
# modifications: exemplary polypeptide
# B22: 37 (protein)
# chain: B18 chain with E106G, H275Y
# modifications: exemplary polypeptide
# B23: 47 (protein)
# chain: B18 chain with I65A, E106G, P132A, I268A, Q269I, I272V, H275V, F318V
# modifications: exemplary polypeptide
# Test: OTA detoxification activity assay (specific activity, fluorescence reduction ex/em 390/450 nm)
# Assay type: biochemical
# Conditions: pH 6.0; SEQ ID NO: 1 = 100%
# Summary of the method: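 Recombinant enzyme preparation with 200 ng/mL OTA in 100 mM sodium phosphate, at pH 6.0 and pH 7.5, 37° C. Degradation followed as the fall in fluorescence at ex/em 390/450 nm. Specific activity taken from the initial linear slope; one unit degrades 1 μmol OTA per min at a starting OTA of […].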
row,Molecule,"Specific OTA detoxification activities in % compared to the enzyme of SEQ ID NO: 1, pH 6.0 [%]"
1,B1,46
2,B2,43
3,B3,36
4,B4,35
5,B5,23
6,B6,15
7,B7,69
8,B8,27
9,B9,64
10,B10,51
11,B11,33
12,B12,70
13,B13,16
14,B14,15
15,B15,32
16,B16,6
17,B17,15

# Same assay, conditions: pH 6.0; SEQ ID NO: 2 = 100%
row,Molecule,"Specific OTA detoxification activities in % compared to the enzyme of SEQ ID NO: 2, pH 6.0 [%]"
1,B18,82.00
2,B19,56.00
3,B20,117.00
4,B21,11.00
5,B22,42.00
6,B23,85.00

# Same assay, conditions: pH 7.5; SEQ ID NO: 1 = 100%
row,Molecule,"Specific OTA detoxification activities in % compared to the enzyme of SEQ ID NO: 1, pH 7.5 [%]"
1,B1,140
2,B2,112
3,B3,146
4,B4,26
5,B5,61
6,B6,15
7,B7,333
8,B8,54
9,B9,100
10,B10,28
11,B11,40
12,B12,67
13,B13,44
14,B14,34
15,B15,87
16,B16,8
17,B17,16

# Same assay, conditions: pH 7.5; SEQ ID NO: 2 = 100%
row,Molecule,"Specific OTA detoxification activities in % compared to the enzyme of SEQ ID NO: 2, pH 7.5 [%]"
1,B18,66.00
2,B19,136.00
3,B20,309.00
4,B21,53.00
5,B22,187.00
6,B23,267.00

# Test: Thermostability assay: residual OTA detoxification activity after 10 min incubation at 45-99° C. (T50)
# Assay type: physicochemical
# Conditions: 0.1 mg/mL protein in 20 mM Tris-HCl pH 7.5, residual OTA detoxification activity relative to 4° C. reference aliquot
# Summary of the method: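 Purified enzyme at 0.1 mg/mL in 20 mM Tris-HCl pH 7.5 was heated 10 min at 45–99 °C, then held at 4 °C. Residual OTA detoxification activity was expressed relative to an aliquot kept at 4 °C throughout; T50 is the temperature range giving 50% activity loss.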
row,Molecule,T50 (temperature at which 50% of the initial activity was maintained)
1,B1,68-70 °C
2,B2,72-74 °C
3,B3,63-64 °C
4,B4,63-64 °C
5,B5,66-68 °C
6,B6,65.3-66.9 °C
7,B7,68-70 °C
8,B8,64-66 °C
9,B9,<63.2 °C
10,B10,<63.2 °C
11,B11,<63.2 °C
12,B12,70.7-72.6 °C
13,B13,<63.2 °C
14,B14,66-68 °C
15,B15,66-68 °C
16,B16,72 °C
17,B17,68-70 °C
18,B18,>99 °C
19,B19,99 °C
20,B20,99 °C
21,B21,>99 °C
22,B22,>99 °C
23,B23,>99 °C
